Substrate in this data set: O=[N+]([O-])c1ccc(O[C@@H]2OC[C@@H](O[C@@H]3OC[C@@H](O)[C@H](O)[C@H]3O)[C@H](O)[C@H]2O)cc1
As to the kind of experiment: Eadie-Hofstee plot of hydrolysis. Type of data set: biochemical, Halalkalibacterium halodurans. The settings on record: pH and temperature of kinetic assay not stated (activity assay: glycine-NaOH pH 9.0, 70 °C). From the text:
Eadie-Hofstee plot of hydrolysis on S7-xyl (Xyn10A in Table 1)

Where [1] appears, read: mutant 254RL1, text b16 says Km slightly increased by 10%, table shows a decrease.

Numbering of substitutions follows the chain as printed. Numbers in names are those of the source.

B1: S7-xyl (Xyn10A in Table 1) (Halalkalibacterium halodurans C-125) (protein)
chain: AQGGPPKSGVFGENEKRNDQPFAWQVASLSERYQEQFDIGAAVEPYQLEGRQAQILKHHYNSLVAENAMKPESLQPREGEWNWEGADKIVEFARKHNMELRFHTLVWHSQVPEWFFIDEDGNRMVDETDPDKREANKQLLLERMENHIKTVVERYKDDVTSWDVVNEVIDDGGGLRESEWYQITGTDYIKVAFETARKYGGEEAKLYINDYNTEVPSKRDDLYNLVKDLLEQGVPIDGVGHQSHIQIGWPSIEDTRASFEKFTSLGLDNQVTELDMSLYGWPPTGAYTSYDDIPAELLQAQADRYDQLFELYEELAADISSVTFWGIADNHTWLDGRAREYNNGVGIDAPFVFDHNYRVKPAYWRIID
notes: N-terminal His-tag, pET-28a, E. coli Rosetta (DE3), codon-optimized synthetic gene; GH10
With B1, under “listed as labelled Xyn10A”, the Michaelis constant (Km) is on record as 4.42 ± 0.12 mM, the kcat was found to be 4.57 ± 0.31 s⁻¹ and the kcat/Km was found to be 1030 M⁻¹ s⁻¹.

B2: S7-xyl (Xyn10A in Table 1) (Halalkalibacterium halodurans C-125; Q274S/V243N/W277R) (protein)
chain: B1 chain with V215N, Q246S, W249R
notes: as for B1
Take B2: under setting [1], the Michaelis-Menten constant (Km) amounted to 4.04 ± 0.27 mM, the kcat was determined as 14.4 ± 0.21 s⁻¹ and the kcat/Km was determined as 3540 M⁻¹ s⁻¹.

Broadly, the Km is the concentration of substrate that gives half-maximal velocity. As a reminder, the kcat is the maximal rate divided by the concentration of active sites. For orientation: kcat/Km means the turnover number divided by the Michaelis constant.

Source of the values: paper PMC6874815, “Tunnel engineering to accelerate product release for better biomass-degrading abilities in lignocellulolytic enzymes” (Biotechnology for Biofuels, 2019).
